Measured values reported in paper PMC3670934, “Milligram Production and Biological Activity Characterization of the Human Chemokine Receptor CCR3” (PLoS ONE, 2013).

B1: Human chemokine receptor CCR3 with a C-terminal 10-His tag (receptor, UniProt P51677 1-355, looked up)
chain: MTTSLDTVETFGTTSYYDDVGLLCEKADTRALMAQFVPPLYSLVFTVGLLGNVVVVMILIKYRRLRIMTNIYLLNLAISDLLFLVTLPFWIHYVRGHNWVFGHGMCKLLSGFYHTGLYSEIFFIILLTIDRYLAIVHAVFALRARTVTFGVITSIVTWGLAVLAALPEFIFYETEELFEETLCSALYPEDTVYSWRHFHTLRMTIFCLVLPLLVMAICYTGIIKTLLRCPSKKKYKAIRLIFVIMAVFFIFWTPYNVAILLSSYQSILFGNDCERSKHLDLVMLVTEVIAYSHCCMNPVIYAFVGERFRKYLRHFFHRHLLMHLGRYIPFLPSEKLERTSSVSPSTAEPELSIVF
notes: human chemokine receptor CCR3; theoretical molecular weight with the tag 42 kDa; The form full length is read from the printed primers (start codon to the last codons of the gene, then tag and stop); By the reverse primer two glycine codons seem to lie between the last CCR3 residue and the ten histidines (surmised from the primer); also called hCCR3; source: also in detergent cell lysate; not …

Experiments:
[1] = molecular target: the molecule itself; assay: SDS-PAGE and western blot; hCCR3 after Ni affinity chromatography in FC-14; 4-12% NuPAGE Bis-Tris gel, LDS sample buffer with reducing agent, not heated; anti-His blot; bands at about 34, 58, 82 and 115 kDa
[2] = molecular target: B1; assay: SPR; Biacore T100; His-tagged hCCR3 immobilised on a Ni-activated NTA sensor chip, chemokine flowed at 30 µl/min; 25°C; 10 mM HEPES, 0.15 M NaCl, 0.1% (wt/vol) DDM, pH 7.4; hCCR3 purified in DDM; 1:1 binding model, KD = kd/ka; settings: both partners purified
[3] = molecular target: B1; assay: as above; settings: both partners purified; remark: listed apart in the source
[4] = molecular target: B1; assay: SPR; Biacore T100; His-tagged hCCR3 immobilised on a Ni-activated NTA sensor chip, chemokine flowed at 30 µl/min; 25°C; 10 mM HEPES, 0.15 M NaCl, 0.1% (wt/vol) FC-14, pH 7.4; hCCR3 purified in FC-14; 1:1 binding model, KD = kd/ka; settings: both partners purified
[5] = molecular target: B1; assay: as above; settings: both partners purified; remark: listed apart in the source

Kd [2] | Kd [3] | koff [3] | kon [3] | Kd [4] | koff [4] | kon [4] | kon [5] | Binder | binding result [1]
 |  |  |  |  |  |  |  | B1 | binds
730 nM |  |  |  |  |  |  |  | commercial recombinant human CCL11 (PeproTech) (ligand, recombinant human chemokine CCL11, bought; No catalogue number printed; probably the mature chemokine (surmised); also called CCL11 from PeproTech; commercial CCL11; source: bought: PeproTech (USA)) not shown | 
 | 70 nM | 0.017 s⁻¹ | 250000 M⁻¹ s⁻¹ | 1300 nM | 0.063 s⁻¹ | 49000 M⁻¹ s⁻¹ |  | CCL11 (eotaxin), home-made recombinant (ligand, CCL11 (eotaxin), endogenous ligand of human CCR3; The detailed protocol is said to be submitted in a separate manuscript; Probably the mature chemokine without its signal peptide (surmised); also called eotaxin/CCL11; home-made CCL11) not shown | 
 | 58 nM | 0.003 s⁻¹ | 51000 M⁻¹ s⁻¹ | 1600 nM | 0.037 s⁻¹ | 22000 M⁻¹ s⁻¹ | 23000 M⁻¹ s⁻¹ | CCL24 (eotaxin-2), home-made recombinant (ligand, human, UniProt O00175 27-119, looked up, CCL24 (eotaxin-2), endogenous ligand of human CCR3; The detailed protocol is said to be submitted in a separate manuscript; Probably the mature chemokine without its signal peptide (surmised); also called eotaxin-2/CCL24; home-made CCL24) VVIPSPCCMFFVSKRIPENRVVSYQLSSRSTCLKAGVIFTTKKGQQFCGDPKQEWVQRYMKNLDAKQKKASPRARAVAVKGPVQRYPGNQTTC | 
210 nM |  |  |  |  |  |  |  | commercial recombinant human CCL24 (PeproTech) (ligand, UniProt O00175 27-119, looked up, recombinant human chemokine CCL24, bought; No catalogue number printed; probably the mature chemokine (surmised); also called CCL24 from PeproTech; commercial CCL24; source: bought: PeproTech (USA)) VVIPSPCCMFFVSKRIPENRVVSYQLSSRSTCLKAGVIFTTKKGQQFCGDPKQEWVQRYMKNLDAKQKKASPRARAVAVKGPVQRYPGNQTTC | 
